B1: conjugate with the mIgG2a Fc: anti-SIRP-α antibody, heavy chain SEQ ID NO:90 and light chain SEQ ID NO:111, conjugated to mouse CpG oligo 4523 (SEQ ID NO:121) (conjugate)
heavy: DVQLVESGGGVVRPGESLRLSCAASGFTFSSNAMSWVRQAPGKGLEWLAGISAGGSDTYYPASVKGRFTISRDNSKNTLYLQMNTLTAEDTAVYYCARETWNHLFDYWGLGTLVTVSSAKTTAPSVYPLAPVCGDTTGSSVTLGCLVKGYFPEPVTLTWNSGSLSSGVHTFPAVLQSDLYTLSSSVTVTSSTWPSQSITCNVAHPASSTKVDKKIEPRGPTIKPCPPCKCPAPNLLGGPSVFIFPPKIKDVLMISLSPIVTCVVVDVSEDDPDVQISWFVNNVEVHTAQTQTHREDYNSTLRVVSALPIQHQDWMSGKEFKCKVNNKDLPAPIERTISKPKGSVRAPQVYVLPPPEEEMTKKQVTLTCMVTDFMPEDIYVEWTNNGKTELNYKNTEPVLDSDGSYFMYSKLRVEKKNWVERNSYSCSVVHEGLHNHHTTKSFSRTPGRPQGFGPP
light: ALTQPASVSANPGETVKIACSGGDYYSYYYGWYQQKAPGSALVTVIYSDDKRPSDIPSRFSGSASGSTATLTITGVRAEDEAVYYCGGYDYSTYANAFGAGTTLTVLGQPKSSPSVTLFPPSSEELETNKATLVCTITDFYPGVVTVDWKVDGTPVTQGMETTQPSKQSNNKYMASSYLTLTARAWERHSSYSCQVTHEGHTVEKSLSRADCS
DNA: ttcgtcgtgacgtt
modifications: antibody conjugated to CpG oligonucleotide; modified_base 2 OTHER; iodo-uridine; modified_base 1..5 OTHER; phosphorothioate linkages; misc_feature 5^6 phosphotriester linker; modified_base 6..14 OTHER; misc_feature 14 3' spacer C3
B2: anti-mSIRP-α antibody conjugated with murine reactive mT-CpG: anti-SIRP-α mIgG1, heavy chain SEQ ID NO:91 and light chain SEQ ID NO:111, conjugated to mouse CpG oligo 4523 (SEQ ID NO:121) (conjugate)
heavy: DVQLVESGGGVVRPGESLRLSCAASGFTFSSNAMSWVRQAPGKGLEWLAGISAGGSDTYYPASVKGRFTISRDNSKNTLYLQMNTLTAEDTAVYYCARETWNHLFDYWGLGTLVTVSSAKTTPPSVYPLAPGSAAQTNSMVTLGCLVKGYFPEPVTVTWNSGSLSSGVHTFPAVLQSDLYTLSSSVTVPSSTWPSETVTCNVAHPASSTKVDKKIVPRDCGCKPCICTVPEVSSVFIFPPKPKDVLTITLTPKVTCVVVDISKDDPEVQFSWFVDDVEVHTAQTQPREEQFNSTFRSVSELPIMHQDWLNGKEFKCRVNSAAFPAPIEKTISKTKGRPKAPQVYTIPPPKEQMAKDKVSLTCMITDFFPEDITVEWQWNGQPAENYKNTQPIMDTDGSYFIYSKLNVQKSNWEAGNTFTCSVLHEGLHNHHTEKSLSHSPGRPQGFGPP
light: B1 light
DNA: ttcgtcgtgacgtt
modifications: antibody conjugated to CpG oligonucleotide; modified_base 2 OTHER; iodo-uridine; modified_base 1..5 OTHER; phosphorothioate linkages; misc_feature 5^6 phosphotriester linker; modified_base 6..14 OTHER; misc_feature 14 3' spacer C3

Columns and labels:
[1] = tested on: RENCA renal carcinoma cells; assay: RENCA syngeneic tumor model, mIgG2a versus mIgG1 Fc conjugates; assay type: in vivo, mouse; settings: BALB/c mice, 10 mg/kg i.p., 3 doses every 3 days, compared to conjugate with the mIgG1 Fc domain
Excerpt: Experiments using anti-SIRP-α antibody-CpG oligonucleotide conjugate used the mouse CpG oligo 4523 (SEQ ID NO: 121) conjugated to anti-SIRP-α antibody comprising a heavy chain comprising the sequence of […] (SEQ ID NO:90) for mIgG2a or […] (SEQ ID NO:91) for mIgG1 and a light chain comprising the sequence of […] (SEQ ID NO:111). The sequence of the 4523 murine CpG oligonucleotide is tucgtcgtgacgtt-c3, where lower case indicates phosphothioate linkages, bold indicates iodo-uridine, and underlining indicates phosphotriester linker (SEQ ID NO:121). RENCA renal carcinoma cells (ATCC) were cultured in Complete RPMI 1640 (RPMI 1640+10% FBS (Gibco)) at 37° C. and 5% CO2. Cells were detached with Trypsin 0.25% (Gibco) and washed twice with RPMI 1640 (Gibco). Cells were resuspended at 20E6/mL in RPMI 1640 and kept on ice until use. 100 uL of suspended cells were subcutaneously implanted into the right flank of 6-week-old female BALB/c mice (Charles River). Tumor size was measured and recorded twice a week with calipers starting 9 days post implantation until duration of the study, approximately 35 days later. Tumor volume was calculated using the following formula: (length×width×width)/2. Once tumors reached on average 75 mm^3, […], mice were randomized by tumor size and treatments were initiated. […]

[2] = tested on: MC38 overexpressing mouse SIRPα and parental MC38 colon carcinoma cells; assay: Mouse syngeneic MC38 model with SIRP-α-positive and SIRP-α-negative tumor cells; assay type: in vivo; settings: 1 mg/kg i.p. twice, three days apart; MC38 overexpressing SIRP-α compared with parental MC38
Protocol: Parental MC38 colon carcinoma cells (ATCC) and MC38 overexpressing mouse SIRPα were cultured in Complete Dulbecco's Modified Eagle's Medium (Gibco) (DMEM, 10% FBS, 1% Pen/Strep, 1% Glutmax, 1% sodium pyruvate) at 37° C. and 5% CO2. Cells were detached with Trypsin 0.25% (Gibco) and washed twice with DMEM. Cells were resuspended at 20E6/mL in DMEM and kept on ice until use. 100 μL of suspended cells were subcutaneously implanted into the right flank of 6-week-old female C57/BL6 mice (Charles River). Tumor size was measured and recorded twice a week with calipers starting 4 days post implantation until duration of the study, approximately 17 days later. Tumor volume was calculated using the following formula: (length×width×width)/2. Once MC38 parental and MC38 SIRP-α tumors reached on average 94 mm^3 to 88 mm^3, respectively, approximately 4 days post implantation, mice were randomized by tumor size and treatments were initiated. The anti-SIRP-α mIgG1 conjugated to mTCpG (heavy chain comprising the sequence of SEQ ID NO:91 and light chain comprising the sequence of SEQ ID NO: 111, conjugated to mouse CpG oligo 4523 (SEQ ID NO: 121)) was administered intraperitoneally 2 doses every 3 days at 1 mg/kg.

[3] = tested on: RENCA renal carcinoma cells; assay: RENCA mouse syngeneic tumor model refractory to PD-1; assay type: in vivo; settings: 10 mg/kg i.p. three times, three days apart, single agent
Protocol: RENCA renal carcinoma cells line (ATCC) was cultured in Complete RPMI (RPMI, 10% FBS, 1× Pen/Strep, 1× Glutamax) at 37° C. and 5% CO2. Cells were detached with Trypsin 0.25% (Gibco) and washed twice with RPMI 1640 (Gibco). Cells were resuspended at 20E6/mL in RPMI 1640 and kept on ice until use. 100 μL of suspended cells were subcutaneously implanted into the right flank of 6-week-old female BALB/c mice (Charles River). Tumor size was measured and recorded twice a week with calipers starting 9 days post implantation until duration of the study, approximately 27 days later. Tumor volume was calculated using the following formula: (length×width×width)/2. Once tumors reached on average 56 mm^3, approximately 9 days post implantation, mice were randomized by tumor size and treatments were initiated. Anti-mSIRP-α conjugated to mT-CpG (heavy chain comprising the sequence of SEQ ID NO:91 and light chain comprising the sequence of SEQ ID NO:111, conjugated to mouse CpG oligo 4523 (SEQ ID NO:121)) was administered intraperitoneally 3 doses every 3 days at 10 mg/kg. In the anti-PD-1 RMP1-14 (BioXcell) treated cohort, dosing was initiated on day 10 post-tumor implantation once tumors reached on average 52 mm. A total of 3 doses 3 days apart at 10 mg/kg were administrated.

[4] = tested on: CT26 mouse colon carcinoma cells; assay: CT26 mouse syngeneic tumor model, alone and in combination with anti-PD-1; assay type: in vivo
Protocol: CT26 mouse colon carcinoma cells (ATCC) were cultured in Complete RPMI (RPMI, 10% FBS, 1× Pen/Strep, 1× Glutamax) at 37° C. and 5% CO2. Once cells were 80% confluent, cells were detached with Trypsin 0.25% (Gibco) and washed twice with RPMI 1640 (Gibco). Cells were resuspended at 20E6/mL in RPMI 1640 and kept on ice until use. 100 μL of suspended cells were subcutaneously implanted into the right flank of 6 week old female BALB/c mice (Charles River). Tumor size was measured and recorded twice a week with calipers starting 7 days post implantation until duration of the study, approximately 27 days later. Tumor volume was estimated using the following formula: (length×width×width)/2. Once tumors reached 110 mm^3, approximately 9 days post implantation, mice were randomized by tumor size and treatments were initiated. Anti-mSIRP-α antibody-CpG oligonucleotide conjugate with a heavy chain comprising the sequence of SEQ ID NO:91 and a light chain comprising the sequence of SEQ ID NO: 111, conjugated to mouse CpG oligo 4523 (SEQ ID NO:121), […], 4 days apart, anti-PD-1 […] (BioXcell) at 10 mg/kg twice, 4 days apart as a single agent or in combination with anti-mSIRP-α antibody-CpG oligonucleotide conjugate for a total of two doses 4 days apart and anti-PD-1 twice, two days post anti-mSIRP-α antibody-CpG oligonucleotide conjugate.

[5] = tested on: B16-F10 melanoma cell line; assay: B16F10 mouse syngeneic tumor model, combination with anti-PD-L1; assay type: in vivo; settings: 30 mg/kg i.p. in combination with anti-PD-L1 antibody 10 mg/kg, compared to either alone
Protocol: B16-F10 melanoma cell line (ATCC) was cultured in Complete Dulbecco's Modified Eagle's Medium (DMEM, 10% FBS, 1% Pen/Strep, 1% Glutamax, 1% Sodium Pyruvate) at 37° C. and 5% CO2. Cells were detached with Trypsin 0.25% (Gibco) and washed twice with DMEM (Gibco). Cells were resuspended at 6E6/mL in DMEM and kept on ice until use. 100 μL of suspended cells were subcutaneously implanted into the right flank of 6-week-old female C57BL/6 mice (Charles River). Tumor size was measured and recorded 2-3 times a week with calipers starting 7 days post-implantation until duration of the study, approximately 17 days later. Tumor volume was calculated using the following formula: (length×width×width)/2. Once tumors reached on average 55 mm^3, approximately 7 days post-implantation, mice were randomized by tumor size and treatments were initiated. The conjugates were administered intraperitoneally 2 doses every 3 days at 30 mg/kg. Anti-PD-L1 was administered intraperitoneally 2 doses every 3 days at 10 mg/kg. […] The anti-mSIRP-α antibody conjugate comprised murine reactive mT-CpG oligonucleotide (SEQ ID NO: 121) conjugated to an anti-SIRP-α antibody comprising a heavy chain comprising the sequence of SEQ ID NO:91 and a light chain comprising the sequence of SEQ ID NO:111. […]

Molecule	anti-tumor inhibition [1]	anti-tumor activity [2]	anti-tumor response [3]	tumor growth inhibition ([4]; 1 mg/kg i.p., single agent)	anti-tumor response ([4]; suboptimal dose 0.3 mg/kg in combination with anti-PD-1 antibody 10 mg/kg, compared to either alone)	anti-tumor response [5]
B1	reduced anti-tumor inhibition					
B2		superior anti-tumor activity	potent, single-agent anti-tumor response	robust tumor growth inhibtion	enhanced anti-tumor response	enhanced anti-tumor response

Reference: patent publication US20240374746A1, “SIRP-ALPHA ANTIBODIES AND CONJUGATES” (Tallac Therapeutics, Inc., priority 2021, published 2024)
